{"source": "paper PMC3836952", "key": {"Cys25": {"molecular_target": "Cys25 (UniProt position 150, GACGSCWAFSA)", "experiment": "kinetics", "details": "35 °C, constant ionic strength (four-component buffer; value not stated), 25 mM glycine, 25 mM acetic acid, 25 mM Mes, 75 mM Tris, 5 mM DTT, pH adjusted with HCl or NaOH"}, "His163": {"molecular_target": "His163 (UniProt position 288, GKQLNHGVLLV)", "experiment": "kinetics", "details": "35 °C, constant ionic strength (four-component buffer; value not stated), 25 mM glycine, 25 mM acetic acid, 25 mM Mes, 75 mM Tris, 5 mM DTT, pH adjusted with HCl or NaOH"}, "[1]": {"details": "Enzyme-substrate complex (saturating Z-FR-MCA) in the presence of 40 µM heparin (10 kDa bovine lung heparin)"}, "[2]": {"details": "Enzyme-substrate complex (saturating Z-FR-MCA), no heparin (control)"}}}
{"substance": "Cysteine protease B isoform CPB2.8 lacking the C-terminal extension (CPB2.8ΔCTE, rCPB2.8), cathepsin L-like (Leishmania mexicana; none (C-terminal extension deleted; residue range not stated))", "values": [{"measurement": "pKa", "setting": "Cys25; [1]", "value": "4.6± 0.1"}, {"measurement": "pKa", "setting": "Cys25; [2]", "value": "5.1±0.1"}, {"measurement": "pKa", "setting": "His163; [1]", "value": "8.8±0.1"}, {"measurement": "pKa", "setting": "His163; [2]", "value": "7.8±0.1"}]}
